Experimental data published in PMC6698648, “A Fanci knockout mouse model reveals common and distinct functions for FANCI and FANCD2” (Nucleic Acids Research, 2019).

Target: T1, Human RAD51 (human, UniProt Q06609 1-339)
T1 sequence (looked up): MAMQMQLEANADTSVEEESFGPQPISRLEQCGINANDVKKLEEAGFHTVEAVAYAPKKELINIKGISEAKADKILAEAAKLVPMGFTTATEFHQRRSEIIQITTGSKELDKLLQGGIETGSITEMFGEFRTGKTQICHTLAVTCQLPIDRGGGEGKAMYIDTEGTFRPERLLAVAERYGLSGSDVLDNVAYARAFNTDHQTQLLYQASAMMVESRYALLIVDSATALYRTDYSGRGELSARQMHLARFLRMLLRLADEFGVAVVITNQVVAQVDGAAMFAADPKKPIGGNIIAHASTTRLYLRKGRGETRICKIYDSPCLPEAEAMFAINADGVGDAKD
Test: cell-based or functional assay

RAD51-mediated D-loop formation, RAD51 at 400 nM with added FANCI (up to 100 nM), fold activation relative to RAD51 alone: 8 fold
B1: FANCI (natural protein, UniProt Q9NVI1 1-1328, looked up)
chain: MDQKILSLAAEKTADKLQEFLQTLREGDLTNLLQNQAVKGKVAGALLRAIFKGSPCSEEAGTLRRRKIYTCCIQLVESGDLQKEIASEIIGLLMLEAHHFPGPLLVELANEFISAVREGSLVNGKSLELLPIILTALATKKENLAYGKGVLSGEECKKQLINTLCSGRWDQQYVIQLTSMFKDVPLTAEEVEFVVEKALSMFSKMNLQEIPPLVYQLLVLSSKGSRKSVLEGIIAFFSALDKQHNEEQSGDELLDVVTVPSGELRHVEGTIILHIVFAIKLDYELGRELVKHLKVGQQGDSNNNLSPFSIALLLSVTRIQRFQDQVLDLLKTSVVKSFKDLQLLQGSKFLQNLVPHRSYVSTMILEVVKNSVHSWDHVTQGLVELGFILMDSYGPKKVLDGKTIETSPSLSRMPNQHACKLGANILLETFKIHEMIRQEILEQVLNRVVTRASSPISHFLDLLSNIVMYAPLVLQSCSSKVTEAFDYLSFLPLQTVQRLLKAVQPLLKVSMSMRDCLILVLRKAMFANQLDARKSAVAGFLLLLKNFKVLGSLSSSQCSQSLSVSQVHVDVHSHYNSVANETFCLEIMDSLRRCLSQQADVRLMLYEGFYDVLRRNSQLANSVMQTLLSQLKQFYEPKPDLLPPLKLEACILTQGDKISLQEPLDYLLCCIQHCLAWYKNTVIPLQQGEEEEEEEEAFYEDLDDILESITNRMIKSELEDFELDKSADFSQSTSIGIKNNICAFLVMGVCEVLIEYNFSISSFSKNRFEDILSLFMCYKKLSDILNEKAGKAKTKMANKTSDSLLSMKFVSSLLTALFRDSIQSHQESLSVLRSSNEFMRYAVNVALQKVQQLKETGHVSGPDGQNPEKIFQNLCDITRVLLWRYTSIPTSVEESGKKEKGKSISLLCLEGLQKIFSAVQQFYQPKIQQFLRALDVTDKEGEEREDADVSVTQRTAFQIRQFQRSLLNLLSSQEEDFNSKEALLLVTVLTSLSKLLEPSSPQFVQMLSWTSKICKENSREDALFCKSLMNLLFSLHVSYKSPVILLRDLSQDIHGHLGDIDQDVEVEKTNHFAIVNLRTAAPTVCLLVLSQAEKVLEEVDWLITKLKGQVSQETLSEEASSQATLPNQPVEKAIIMQLGTLLTFFHELVQTALPSGSCVDTLLKDLCKMYTTLTALVRYYLQVCQSSGGIPKNMEKLVKLSGSHLTPLCYSFISYVQNKSKSLNYTGEKKEKPAAVATAMARVLRETKPIPNLIFAIEQYEKFLIHLSKKSKVNLMQHMKLSTSRDFKIKGNILDMVLREDGEDENEEGTASEHGGQNKEPAKKKRKK
